According to patent US20190360025A1:

Experiments:
[1] = molecular target: interleukin 6 (IL-6), R&D Systems 206-IL-010 (UniProt P05231); assay: c-PLA, buffer; IL-6 1.00E-08 M
[2] = molecular target: interleukin 6 (IL-6), R&D Systems 206-IL-010 (UniProt P05231); assay: c-PLA, buffer; IL-6 1.00E-09 M
[3] = molecular target: interleukin 6 (IL-6), R&D Systems 206-IL-010 (UniProt P05231); assay: c-PLA, buffer; IL-6 1.00E-10 M
[4] = molecular target: interleukin 6 (IL-6), R&D Systems 206-IL-010 (UniProt P05231); assay: c-PLA, buffer; IL-6 1.00E-11 M
[5] = molecular target: interleukin 6 (IL-6), R&D Systems 206-IL-010 (UniProt P05231); assay: c-PLA, buffer; IL-6 1.00E-12 M
[6] = molecular target: interleukin 6 (IL-6), R&D Systems 206-IL-010 (UniProt P05231); assay: c-PLA, buffer; IL-6 1.00E-13 M
[7] = molecular target: interleukin 6 (IL-6), R&D Systems 206-IL-010 (UniProt P05231); assay: c-PLA, buffer; IL-6 1.00E-14 M
[8] = molecular target: interleukin 6 (IL-6), R&D Systems 206-IL-010 (UniProt P05231); assay: t-PLA, buffer; IL-6 1.00E-08 M
[9] = molecular target: interleukin 6 (IL-6), R&D Systems 206-IL-010 (UniProt P05231); assay: t-PLA, buffer; IL-6 1.00E-09 M
[10] = molecular target: interleukin 6 (IL-6), R&D Systems 206-IL-010 (UniProt P05231); assay: t-PLA, buffer; IL-6 1.00E-10 M
[11] = molecular target: interleukin 6 (IL-6), R&D Systems 206-IL-010 (UniProt P05231); assay: t-PLA, buffer; IL-6 1.00E-11 M
[12] = molecular target: interleukin 6 (IL-6), R&D Systems 206-IL-010 (UniProt P05231); assay: t-PLA, buffer; IL-6 1.00E-12 M
[13] = molecular target: interleukin 6 (IL-6), R&D Systems 206-IL-010 (UniProt P05231); assay: t-PLA, buffer; IL-6 1.00E-13 M
[14] = molecular target: interleukin 6 (IL-6), R&D Systems 206-IL-010 (UniProt P05231); assay: t-PLA, buffer; IL-6 1.00E-14 M
[15] = molecular target: interleukin 6 (IL-6), R&D Systems 206-IL-010 (UniProt P05231); assay: SPR (Biacore T200), 1:1 global fit
[16] = molecular target: interleukin 6 (IL-6), R&D Systems 206-IL-010 (UniProt P05231); assay: SPR, isoaffinity graph
[17] = molecular target: interleukin 6 (IL-6), R&D Systems 206-IL-010 (UniProt P05231); assay: SPR (Biacore T200), biotinylated antibody on CAP chip, 1:1 fit
[18] = molecular target: interleukin 6 (IL-6), R&D Systems 206-IL-010 (UniProt P05231); assay: BLI (Octet RED), antibody on protein G sensors, 1:1 global fit
[19] = molecular target: interleukin 6 (IL-6), R&D Systems 206-IL-010 (UniProt P05231); assay: SPR, off-rate given by the software, beyond the sensitivity range of the instrument
[20] = molecular target: interleukin 6 (IL-6), R&D Systems 206-IL-010 (UniProt P05231); assay: SPR, value from the software's off-rate, beyond the sensitivity range of the instrument

Chain of UniProt P05231 (P05231 30-212 limits assumed): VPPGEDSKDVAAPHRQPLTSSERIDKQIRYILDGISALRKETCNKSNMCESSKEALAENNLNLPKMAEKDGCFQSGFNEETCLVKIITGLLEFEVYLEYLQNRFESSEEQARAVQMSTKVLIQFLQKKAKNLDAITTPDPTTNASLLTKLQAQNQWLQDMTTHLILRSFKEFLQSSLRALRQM

affinity-purified polyclonal anti-IL-6 antibody (R&D Systems AF-206-NA)
Counts [1]: 137000
SBR [1]: 7540
Counts [2]: 312000
SBR [2]: 17200
Counts [3]: 30800
SBR [3]: 1700
Counts [4]: 1980
SBR [4]: 109
Counts [5]: 141
SBR [5]: 7.8
Counts [6]: 84.3
SBR [6]: 4.6
Counts [7]: 55.2
SBR [7]: 3
Counts [8]: 2.05e+09
SBR [8]: 1410
Counts [9]: 3.87e+09
SBR [9]: 2670
Counts [10]: 3.88e+08
SBR [10]: 267
Counts [11]: 3.72e+07
SBR [11]: 26
Counts [12]: 1.16e+07
SBR [12]: 8
Counts [13]: 2.68e+06
SBR [13]: 1.8
Counts [14]: 3.03e+06
SBR [14]: 2.1
Kd [15]: < 4.3 pM
koff [15]: < 1e-05 s⁻¹
kon [15]: 2.33e+06 M⁻¹ s⁻¹
Kd [16]: < 5 pM
Kd [17]: < 4.3 pM
koff [17]: < 1e-05 s⁻¹
kon [17]: 2.3e+06 M⁻¹ s⁻¹
Kd [18]: < 2.49 pM
koff [18]: < 1e-06 s⁻¹
kon [18]: 402000 M⁻¹ s⁻¹
koff [19]: 4.65e-07 s⁻¹
Kd [20]: 0.199 pM
